Test system: thrombin-cleavable lipopeptide conjugate (TCP-stearate)

With thrombin the “MALDI-TOF mass spectroscopy of TCP-stearate before and after exposure to thrombin (30 minutes, 250 nM)” value was “thrombin could efficiently cleave the conjugate, evidenced by the fact that after thrombin exposure very little of the TCP-stearate conjugate remains (peak at 1046 m/z), whereas 2 new degradation peaks appear (495 and 534 m/z)”.

Source: patent US20250041390
